The source of these data is patent publication US20220251192A1 (Memorial Sloan Kettering, published 2022).

Changes are numbered by the printed parent chain.

B1: chMy96 (antibody, V domains shown)
VH: QVQLQQPGAEVVKPGASVKMSCKASGYTFTSYYIHWIKQTPGQGLEWVGVIYPGNDDISYNQKFKGKATLTADKSSTTAYMQLSSLTSEDSAVYYCAREVRLRYFDVWGAGTTVTVSS
VL: NIMLTQSPSSLAVSAGEKVTMSCKSSQSVFFSSSQKNYLAWYQQIPGQSPKLLIYWASTRESGVPDRFTGSGSGTDFTLTISSVQSEDLAIYYCHQYLSSRTFGGGTKLEIK
notes: also called chimeric form of My96; chimeric anti-CD33 antibody
B2: My96-H1L2 (antibody, human IgG1, V domains shown)
VH: QVQLVQSGAEVKKPGASVKVSCKASGYTFTSYYMHWVRQAPGQGLEWMGVIYPGNDDISYAQKFQGRVTMTADTSTSTVYMELSSLRSEDTAVYYCAREVRLRYFDVWGAGTTVTVSS
VL: NIVLTQSPDSLAVSLGERATINCKSSQSVFFSSSQKNYLAWYQQKPGQPPKLLIYWASTRESGVPDRFSGSGSGTDFTLTISSLQAEDVAVYYCHQYLSSRTFGGGTKLEIK
notes: Humanized My96 IgG (human IgG1 frameworks), expressed in DG44 cells; also called humanized My96 VH-1/VL-2
B3: My96-H3L3 (antibody, human IgG1, V domains shown)
VH: B2 VH with M34I, M70I, T74K, T76A, S77T, V79A, A110Q, T113L
VL: B2 VL with K45R, S83R, L109V
notes: Humanized My96 IgG (human IgG1 frameworks), expressed in DG44 cells; also called humanized My96 VH-3/VL-3
B4: My96-H3L1 (antibody, human IgG1, V domains shown)
VH: B2 VH with M34I, M70I, T74K, T76A, S77T, V79A, A110Q, T113L
VL: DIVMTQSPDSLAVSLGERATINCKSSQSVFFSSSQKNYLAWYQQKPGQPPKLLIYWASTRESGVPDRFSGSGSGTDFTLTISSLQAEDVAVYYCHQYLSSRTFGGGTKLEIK
notes: Humanized My96 IgG (human IgG1 frameworks), expressed in DG44 cells; also called hMy96 L1H3 (variable domains as in BsAb BC269); humanized My96 VH-3/VL-1
B5: My96-H3L2 (antibody, human IgG1, V domains shown)
VH: B2 VH with M34I, M70I, T74K, T76A, S77T, V79A, A110Q, T113L
VL: B2 VL
notes: Humanized My96 IgG (human IgG1 frameworks), expressed in DG44 cells; also called hMy96 L2H3 (variable domains as in BsAb BC248); humanized My96 VH-3/VL-2
B6: My96-H2L2 (antibody, human IgG1, V domains shown)
VH: B2 VH with A61N, T74K
VL: B2 VL
notes: Humanized My96 IgG (human IgG1 frameworks), expressed in DG44 cells; also called humanized My96 VH-2/VL-2
B7: My96-H1L1 (antibody, human IgG1, V domains shown)
VH: B2 VH
VL: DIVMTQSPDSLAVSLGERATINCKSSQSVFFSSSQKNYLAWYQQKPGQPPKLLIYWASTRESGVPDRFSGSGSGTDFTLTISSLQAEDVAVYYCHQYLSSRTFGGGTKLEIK
notes: Humanized My96 IgG (CDRs grafted onto human IgG1 frameworks), expressed in DG44 cells; also called hMy96 H1L1; humanized My96 VH-1/VL-1
B8: My96-H2L1 (antibody, human IgG1, V domains shown)
VH: B2 VH with A61N, T74K
VL: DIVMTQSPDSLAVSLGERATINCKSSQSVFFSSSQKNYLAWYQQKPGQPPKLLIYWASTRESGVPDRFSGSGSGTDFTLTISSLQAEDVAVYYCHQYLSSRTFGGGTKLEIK
notes: Humanized My96 IgG (human IgG1 frameworks), expressed in DG44 cells; also called hMy96 L1H2 (variable domains as in BsAb BC257); humanized My96 VH-2/VL-1
B9: My96-H1L3 (antibody, human IgG1, V domains shown)
VH: B2 VH
VL: B2 VL with K45R, S83R, L109V
notes: Humanized My96 IgG (human IgG1 frameworks), expressed in DG44 cells; also called humanized My96 VH-1/VL-3
B10: My96-H2L3 (antibody, human IgG1, V domains shown)
VH: B2 VH with A61N, T74K
VL: B2 VL with K45R, S83R, L109V
notes: Humanized My96 IgG (human IgG1 frameworks), expressed in DG44 cells; also called humanized My96 VH-2/VL-3

T1 sequence (P20138 18-259 limits assumed): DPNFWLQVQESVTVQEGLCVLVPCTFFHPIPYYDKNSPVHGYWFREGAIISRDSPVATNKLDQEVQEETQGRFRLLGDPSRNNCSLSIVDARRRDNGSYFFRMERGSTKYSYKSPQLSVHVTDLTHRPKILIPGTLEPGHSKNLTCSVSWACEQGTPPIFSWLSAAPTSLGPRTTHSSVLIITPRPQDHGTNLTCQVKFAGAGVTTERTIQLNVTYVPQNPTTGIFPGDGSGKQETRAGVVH

The assay concerns the target T1, CD33 (UniProt P20138 18-259, limits assumed).
T1 construct: CD33 protein used as the active surface in the Biacore assay (about 1000 RU); also called Siglec-3; SIGLEC3
In words: SPR, Biacore T-200, CD33 amine-coupled on CM5 chip, antibody as analyte (31-500 nM). As to the method: To determine whether humanized anti-CD33 My96 antibodies bind to CD33 with equal affinity as the chimeric form, surface plasmon resonance assay using Biacore T-200 was performed. Biacore T-200 Biosensor, CM5 sensor chip, and related reagents were purchased from GE Healthcare. CD33 as the active surfaces and blank as the reference were immobilized onto the CM5 sensor chip at around 1000 RU (response units) using the Amino Coupling kit (GE Healthcare). CD33 antibodies and relevant control antibodies were diluted in HBS-EP buffer (0.01 M HEPES pH 7.4, 0.15 M NaCl, 3 mM EDTA, 0.05% v/v Surfactant P20) at varying concentrations (31-500 nM) prior to analysis. Samples were injected over the sensor surface at a flow rate of 30 μL/min over 1 min. Following completion of the association phase, dissociation was monitored in HBS-EP buffer for 3 min at the same flow rate or for 30 minutes at 37° C. for antibodies with slow koff. At the end of each cycle, the surface was regenerated using 10 mM NaOH at a flow rate of 50 μL/min over 30 sec. The biosensor curves obtained following injection of the samples over active surface were subtracted from the control curves obtained with the samples injected over reference surface prior to kinetics analysis. The data were analyzed using the Biacore T-200 evaluation software. As shown in the Table below, the humanized anti-CD33 My96 antibodies bound with similar kₒₙ and koff as the chimeric form of the antibodies.
In general, Kd refers to the equilibrium constant for the complex coming apart. As a reminder, the koff is the first-order rate constant of dissociation. Read a low koff as slow dissociation. One may read the kon as the second-order rate constant of association. The low end stands for slower complex formation, the high end for faster complex formation. For the molecule B1, the affinity, expressed as Kd, was 0.321 pM; the off-rate (koff) worked out at 2.38e-07 s⁻¹; the on-rate constant (kon) was found to be 739000 M⁻¹ s⁻¹.
For B2, binding was put at a Kd of 0.218 pM, the koff was determined as 1.03e-07 s⁻¹ and the kon amounted to 473000 M⁻¹ s⁻¹.
With B3, the affinity, expressed as Kd, was 0.324 pM; the koff was 2.03e-07 s⁻¹; the on-rate (kon) worked out at 625000 M⁻¹ s⁻¹.
As to B4, the Kd turned out to be 0.00645 pM, the koff was 3.63e-09 s⁻¹ and the association rate constant (kon) was found to be 563000 M⁻¹ s⁻¹.
The molecule B5 displayed a dissociation constant Kd of 0.294 pM, an off-rate (koff) of 1.6e-07 s⁻¹ and an on-rate constant (kon) of 543000 M⁻¹ s⁻¹.
As to B6, the Kd was 0.273 pM, the koff was 1.42e-07 s⁻¹ and the kon was 520000 M⁻¹ s⁻¹.
Take B7: binding was characterised by a dissociation constant (Kd) of 0.321 pM, the off-rate constant (koff) was 1.44e-07 s⁻¹ and the kon was determined as 447000 M⁻¹ s⁻¹.
In turn, B8 registered a Kd of 2.42 pM, a koff of 1.51e-06 s⁻¹ and a kon of 623000 M⁻¹ s⁻¹.
Take B9: the Kd was determined as 0.88 pM, the koff amounted to 4.95e-07 s⁻¹ and the association rate constant (kon) came out at 563000 M⁻¹ s⁻¹.
For B10 the same measures were 0.143 pM, 9.16e-08 s⁻¹ and 641000 M⁻¹ s⁻¹.
